The target in this assay is DENV-2 particles (dengue virus 2).

B1: Trx-tagged mucin protein of Aedes aegypti (natural protein)
chain: MQTFACICLISILISESFGKFDTPADPVFSDDVTDYDSPSGIDYYDVKDYPMIPGELNVYRKTKPGGLLPSSDVDMKGKMLTSKEVTTKPRNIPTRQHRVQNRIRKPARFSTVVPLPTAALTAPQCILQRTTPKPLWRREGGRVIIDGSDPNIDIFKVMRESRRRPTEAPKPTGNLPMRDIVGNEIKPETASNQFLVLGSVLRCRETKQEVHEHRTRNSRVEISDPTVTGLTVEYPPNIIRLTHRFESTSTGGKAFVFRTMNGKQGILKLKWYSCPTRNSG
Molecule B1 gave a DENV-2 titer by focus-forming assay 6 days after microinjection of DENV-2 particles with anti-mucin antibodies into Ae. aegypti, against DENV-2 with PBS or pre-immune serum (% reduction in DENV-2 titer) of 12.5.

(Values after article PMC10101019.)
